# Test results as given in the NTF2 design screens of Basanta et al. (2020).
# Test: protease stability score; higher = more stable; yeast display proteolysis, trypsin and chymotrypsin;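 also: relative to predicted unfolded state with 0 unfolded-like and 1 meaning tenfold more protease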
row,Sequence,protease stability score
1,REEEQHAERFTKLFIEAFETGDWKELSRLLDPHARMEWNGRVHHGMEQIVEVLLKQFHDLGFRIEHVRIHDIRVQGEKIKVDVDIDGIVDGRREHWKVTLIILKVNGRWLTKEIEYR,1.31
2,SDEHERLKRFAEEWIRAVITGDFDRLYELMDPHARYHQGDKNHHGRDQIRHFLHRFKNIRIDYHRIELIGDKVHMDGWINYDGKEVETKITVHVIDGRVHIIHVWEI,1.39
3,SEEEEESKYALKIERELLYTGDWHLLTRYADPDVRATINGQKVIGRELFSHIFLEELDKLGMRIHDIRETHWTLINGVAIHHMRINTRQGEKSYHTEMNLISLKVDGRWLIQSYELG,0.523
4,SEDEEWAKRMADNILEFLNTGDFREFSKELDPNTILRIDGREIHGMELVETHLEHARMRVDDWEIRSVRSVNGKLDVDMRLDGKLRFDGKEHYRKTESILIILKVDGKWRIHNIHVR,1.07
5,DESEEKAREFLEILVRDVRTGDEESAVRLLDPNVRIEQGDKELHGWEVYIHWAKHIRMRSVHLRTMEVQGDKVILRGDERQEIDGVESVRDVIVYVRKINGRWVMTSIEVL,2.15
6,DEERHYVEHIIKLLSRHIYTGDFEAFEELLDPNALIIIGDKHLVGREDWRRLVHEIRIRNEHVEIEDVNVYDGRAESKVTFHGRREYDGRTTETNLDVNYFLLKINGRWVFESLEIR,1.67
7,DDEKEEVERLARLFIHYVLTGDEDTLREMVDPNVRIRIGDKRNHGMKFLLHLITVWLERVDHVRIEVDESRLVNGQLNMTGTLHLHQGDKTQELRTRSHLVIVNGVMKEITFEYD,2.06
8,SEEHKQIEEFLTRFYRFKKTGDEKMLSRMADPNYKMDIDGQDVHGREEYEEASRRFDHIHHIKLRQFERQGNKVYLDIEVDGEVNGRQTKHTSTLILLKIDGRWYIEHVHWE,0.722
9,SKLEEDAHKMLDKILHNIRTGDEESEHRLADPEVKFHIGDKTFHGMSLVSKLLLHLRIRTERIENVNIRVINGVAEVEMRGVRDGEFNGVRVQVTVEEHFIIDKINGRWIIREIHVHII,1.29
10,HEDRKLEREIAEEMVKLWLTGDETRFEQLADPHVRVEDGDKESHGRENFSKLVRHRKTEFGIDHIEVEDIRVYDGRVEIRVRMEIGEKETHVRIIQVVINGRLKSVHLHFR,0.771
11,SEKTHEFQKLYHEWIRVEWTGDFHMLSHMADPNTRVELIINGRTVERIGREDMIELVRRLKHEIRFHDFDIKRVRIQGEKIYADTHEDGEINGQRRETDAKLELDVYNGKIESVFWYIE,1.13
12,DERDELLEHVIKLHQDALRTGDEHTLTELMDPHVRVIIGDKHHHGWESITKYLRELRFHSHEVHIDHVHIFNGRIHADITLRGTHHFNGRTFHDTHKVELINTKINGKWTIESLIIR,1.15
13,DEHEEQVRRFLHHLWRSVQTGDEHELANNFDPNTRVDVGDKHLHGMERFVYLIFEFARHWRIRHTTLHFIVRIGEFIEVDHILDGEIDGRRREVKMTIIIFKVDGRWIIRSMEVK,1.82
14,SEDKEEAEEFVRIFNEALITGDFEFIEHLADPNVKYRQGEYHEHGRESLSHMFRFLGWSNVKIHLRHIKFYGDKIEVHGEVRIDGRTHWVNSYITKYDGRWYLTSLQIE,1.21
15,SEWEKDLELALRFVMHAFTTGNWEDLLKFFDPDVRIEVGDKEIHGRHVFFEFLEKLGVKHLRLEIELNHFEIQGDKIHEHGIYRFTYHYNGRVEKKEHDTRVHVTKINGRWYLTHQRVD,0.668
16,SEEEEMARRFTDRLLHFTQTGDERLVHEFVDPNARDDVNGREFHGWRSIHDIMRRLGIDHIRIRHIEVQGDKVRSHWQYVFNGVILEVEINTEKVDGRWLIKSVTFK,1.14
17,SEEEYWAKEMAILLDIAWYTGDEERFEEYVDPNTRIDFDGRVFHGREFLHHFRERVDHMREVRSRIESVHKQGDKLRVHGHLIIQGVIDGVDTQQRFKVHFIMEKVDGRWIFREEIYK,1.51
18,HEREHLLERMLKLLLELLLTGDEDTWKHYLDPHTRVIFNGREEHGRTAFERFVKELGVDHIEFKHVEIRHIGDKVHLHVDARVEINGRKHNMHLHIHLRKIDGQWEVKEFRIEIE,1.27
19,DEEEHIMKHELEKWWETVDTGDEDEMLRLADPNVRVDFNGREFVGREEFLKHVEFMVKEWRLTDRRIEREHVIDGKMIIHMRVHGTFNGKETDTRIEIILHVVDGKVKSEEYRIK,2.06
20,DELEELAEKIIRRLSELLLTGDFRELERFADPHTRVDINGKEFHGREFFSKLWLEMVRRFDHIEVHVHHMEIQGDKVFIDSRLHLLQGDKKEDREVLFILRKIDGRWILTVWKIR,2.32
21,DEITHEIEHNLKLLLKAWETGDEHLLTEMIDPHDKIHIGDKTIIGRELRLEIEKRLGAKVVEVEIKRIEVQGDKILMHGTIHIEIGDKRFERESRFVAHKFNGRWHQKSLDII,1.21
22,SDLEKETEELTRLFLENLVTGDEKTARELIDPHAMTDIGDFHIHGRDRTFRHIEELWRHWGVDRIRIHHDHIDIQGNKSYIEGTIHINGQSRKVHLIIIVFNGRIDKVRMHIR,1.36
23,SEEFEILFRLLEELDRAFETGDFKRFMELADPHTRLDVGEFHHWGREKVLEFWRHWRVKHVRVEFKRIDYQGDKLHTDGILRHTGEINGQETHEETRTNIHLIVINGRMHALEVRII,2.01
24,SEDDDLAKDFVSLMLHEFRTGNEESMSKLVDPHVRLHIGDKTYVGRENVSRILKKELRDYGIDHMHIDHLRVQGDKVHIHTTYRQGDKEMETHFVILKVDGKWFMHEIEIR,1.88
25,DDKDEILLKLAKIVFENELTGDEESLEHLFDPNTRRIVNGKELVGWELISKYWKEQKKEMRVELRLRRHDIQGDKTRVRGEEILEIGEFKLILDVEITIVVINGRFTRIEIRVK,0.185

row,Sequence,protease stability score
1,SEVEEWLRTLIHLIILAFRTGDEDQMRRNFDPNARVHVGDKDYHGRELFEEMMHHWRLHHIHIHDVRVQGDYVEADIKLDGEVNGKRFTTRVIIVFLKIDGKWQEKESEFV,0.395
2,DDRKKEAQRILELFLKIWETGDEEELLKLLDPNVKLHIGDKNIHGMEEATRILTENVREIRTHIVHKRVHIQGDKVELEGELRIHVNGREESNRVHYELIVVNGKVKAIHVHLE,1.16
3,SEDDEIKKHVAERWLKRLETGDEKTLSKLLDPDVRLHINGRTLHGREEVVHELHKWYYELGVDHVILRHIDHVNGQLRLHNEIRFENRHTSEILVITKVDGQWIVKYIEIRDH,1.53
4,DEHDEYLHHLLKVLWELIMTGDEHTFERLADPNVRLEVGNYFHVGRENIREMWKFLHDLLGVDHFRLHIRDLRVFNGVADAEYELRLNQGDKETRIEVRIYVHIVNGVLKSIRIETH,1.44
5,DEHKEILREYAKKFLNDVMTGDEDEIEHLADPHARVEIGDKDIHGWEQWIKHLSRTWKELRIEDYRIRSIELVNGVVHLDTHLHIRIGDKRFDTQVEIHLVVINGKVKSVRVDIR,1.12
6,HEIEEIARHINNIWEERSRTGDFRHFTTLLDPHARIDINGVELHGRELWMSRVYHHFQSHGIEYSVHTKHIEVFDGRVHLHGELFFHFNGVDITIRTHHTMRKVDGRWFVEQIIVH,0.468
7,DELHRDVTEAIKLILHAERTGNWRLMMDLMDPHVKLTIGDKEVHGMEAVFNELRTELEELGLDRFESHVRLRDFRIYDGRVDFHVELIFDFNGREIRHDTRFIVEKVDGRWFIKHIQYG,2.13
8,DEDEEEAKEFLRIYIEALRTGDEDLWKEMADPNMRLIVGDKERHGRESYTHWERELGYRLEHIHIDHVTFQGDKVDVETTLRIHINGQTHDVEIHLIVTKIDGRWHMKEIIIK,1.08
9,DEEEELYRIALEESIRTLKTGDEDRVHELFDPRARIIVNGREFHGRERATKWAFDWIHKVKNMRFELRDFRIQGDKIIIHGKLHVNGQETEIIIIIHKIDGRWLIEQVEVR,1.4
10,DEHTKFLEKLLRDWMESVLTGDEHLIKRYADPNVRLDFNGQQFHGRDSMVHLLKEWRIKHFKLDSFFAIDGVTFVDGESRGEVNGQETENRLHVEIFVVNGKVTHVKIRIL,1.68
11,DHEREDMRRFVQEVLRVIETGDEDIYMRLLDPHYKVDFNGREIIGREELLRFFRDLGVDRIEADKEDVRSQGDKVITNTHITVNGRRIEMRVIVIKIDGQWVLHSLEFR,1.2
12,DERTEHFREYREKVLESIETGDPRVIKEMLDPNAKVEIVIGEKNFDLHGREEVMRWYEEWVEKYKGMRIHINHVEVQGEKIIVDSELEVNGKSHKTDLIITAFNGVIKETRVEIN,1.06
13,SEEEEESKIISKLAIEETKTGDFESIRRNADPRARSDVDGQEMHGRELLEHIFRWIIEKAGVDKVETDLHELRIVGDKVHVRTKLHIGDWRIEVEIIVRKINGRWHLHSMRFSLR,0.646
14,DEETKFLLDIFRLVLELFMTGDEDTFSRLFDPNVRNEVNGVEAIGWHQVRELIKEILKEIRIEHIHIHDVRAVGDKVHADTRTDGIINGKRQRRETHVHLETVNGRLKSIWLQIE,1.13
15,SEFEHRAHEVLEIMSNALHTGDEERMQKLMDPNVRIVIGDKENIGRETFMYWVKEIRFEIEIHIHRIDVINGRIHADTRLRIIIHYNGREHRDHFDVHFDIQKVDGRWVVHRIIVD,2.1
16,DEDEKEATHWWRLLIKNIETGDEKSEKELLDPHARVEIGEFESVGRETVAEMWFRLMEHIRLKDSHEKDFDMQGDYMHVNGHVVGEYNGKHIKSDVRIILIVIDGRVKEVTVKIH,0.208
17,SEEEEISKELARLWLHLFFTGNEEKLTELFDPNARLIVGDKQRHGRERVIKIFHEWLLELGIDYLDIHHIEFQGEKVHMNTKVRQGDFETRTEVNLIIVNGRIKEVRFDLR,1.19
18,SEEEETAYKVMEEVISAWLTGDEDLFNELADPDVRFELEFNGKKIDIIGRELVSKYWRDVIDHIRVEVVLRDYRMIDGRIETETEIYVEVGDKSHSVETRLHMEVIDGRLRTVKIKVR,2.22
19,EEHYEDMHHAMELFIHAVRTGDEHTLSRMLDPNTRIRIDGVHLIGREQAVKWWLELYKKFPNMRLNLKRIDIFDGKLHVDLETNINGVRLDSHLLISKVDGQWRVDSIQHE,1.5
20,NEEKEEAERFTRQFLHSWRTGDEESLKRMADPNVRIIVGDYEKVGWEAIEETIKRLGIDHLEYHSVHVHVIGDKVNIHSDVRIQVNGQERDVQIHVHMRKINGRWFVESIRLNFH,1.26
21,DELHERLEEVLEVRIEAILTGDWHWLSRMLDPDTRLEVGDKTYHGMEKIYEKLHTETRRMGWRMEVEIKDYRFQGDYLNVDGTIHIKIGDKEIQKRSELKIVVVDGRITEFKIEYR,1.18
22,TEEEEEFKRTSHEIFYALHTGNWEILEKMFDPHVRTHINGKDVHGREEATRVMELWIEELGVKHIHIKSEHHDIQGEFVRIHFHIISRVGDKFIEIEIEMEIRKINGRWRFTSIRLDRR,1.42
23,SDDEQNVRDTFTEFVESMETGDEDHMLEMVDPHVRIEFENHSHIGRDNVHRWILFFKNATLRWKLERMHVYDGRVEIHSRMEVEVNGREIEFNIILHVRKVDGKWVIHEIRIH,1.14
24,SEVEDFLHEFVRKLVRVLDTGDWEVLEKMFDPNTRFHIGDKELHGREEFVKFTEELGIRVRWELKDIRFQGDKAETIGTERVDFNGKEITTDVTFEVLLFNGVIKEIRIRRR,1.36
25,DSEEEDARRALQEFLEHLATGNWEVLTKMMDPNTRLDVDGRDIHGWDEVKHHLKEMRVTIDHLHIERYIVQGEKVDIRGRVHILKEFDGKVLRHDRHVRIIFEKVDGRWIIHKIEHR,1.99
